Experimental data from the DeepSol protein solubility set.

Test: soluble on expression in E. coli; label from the status in PepcDB or PDB records

Sequence	soluble on expression in E. coli
MGSDKIHHHHHHGCNQSSKSDTKKEVTSKVGTYASVDCSTFTKSKDLPKGASCGYLTVPEKHAIKGQSASKKTMEIAVLKIPATKTEAKADPVVYLQGGPGYSAIDSLEDFTQSKAKYLWNDRDFYLVDQRGTGHAKPAYKCTEFNTVKGSIEQVKACKARLKAKGVDFSAYQSVQSAHDFIMLRKALKLDSWNLYGASYGTRLAETIIREDSQGVRSVILDGVFPIEVNGLSDTPWATYATLDRIVANCDASINCASEILKPMIESIIERLQNQGEEQAAIRFVNYIASLAGDARVVPLILAIDKDLNIIINEKDNEEAEGYFAPMALSVVCAEEYAFLNQTALEGRNDKNWSTTTTLTVNKMFHEGFDIDSCKAWDVAAADSIETQAVTSNLPILVINGGNDHQTPPAWGELVVKNMPNAQLFTNPQGGHVQLTSQNPYRNCIDGITMAFLAAPDQKIKTQCTSMIPVFKYN	not soluble
MGSDKIHHHHHHMGDVTVKDYKGGTIEDPEELKSNQTILTIDQAKYFNFKVDDVDKAQSNILLVDKGMGRASYAVQDVIDKFIAALVKDAKIKIGSTSKPIEITVANAYDTLVDLGVELDNKNVPRVGRFAILPPFYLGLLSKDPRFTKDFKILENGVVEGATVSGFKLMMSNNVPFSANNYSIMAGTDMAISYAGQVTEIEAYRPEKSFSDAMKGLYVFGAKVVQPDCLACLTVKQKVAEV	not soluble
MAHHHHHHMSSSAEEKEAKKQEELRLAGSDSEGVRAAVKAQRELKKKRDALRKVQKKIRSGGSDAEVAAAIEQEAALLAEIGHLEALRGASSAPSTAHVAAASFTSTPATAAASPGALVTVATNKSSGAKAARSGEPAKEITAEERAASAKRLHDLVQGAMDANRLKCLHVLPRDAVVHPRIAEVAVLMEQMLLVGGSARALALISAFRELSRTTTVLAVPSLNEVNTTAFEKLIQINFDFVRRKREASAGMRHVKDVLVRRFVALRDEVIHPKPNMVDLIKDLGGPREVTLKILDAIEAELKMSFKSIVEDRSLPYVSSSDTILVFGRSSLVEYILLSRSRDPQCKPKRVIVIDSAPLFEGRQLAEKLSSAGIDVTYGLITACCTLMPKCTRVFMGASAVLQNGDMFGRCGMALVAACAKLFRKPVLCFSESYKFVPEVWVGNLAQNTKLADMRPAAEVHGSDTGTHSPLVYPTPPTLSPPQLRASGGWGTPARGADFLTRSGGGGAVPFSSSASGYLYDLTPASYIDMIICEMGCLHTSAIVAAIKDREGRDTSQLLNLVRG	soluble
MEKKAFFQQLDERTDIRYTDSGLKIFRLKFPRAHLRLCNVKIDFGSRDVCIRAESGDTLLPYGTAHFLEHLLFWHNGRNLYSDFFAHGALLNAFTTYTDTNFMFTSLPDRLRQTIPILLDALWNHSFDKKIVAQEKAVITSEIQTAHLNHQLSYHYQLISMLSPSSPAAVFPAGRIEDIEALDISDLQKAYKAAYQAHRMTLFLIGGSENTETLLPPHLQLEKRPDYHAERKIIPACPPVLSQKMMLGDEERMEDTWTGLQIGALPGQNDLLSIKLYWDIAARILFQLDSPFFQEIQQTYRLEIDRLSAETYIYEDGGFLILHSQGTHSSAYIDVASYYVTQKKEQVAAWLQYGKDSLTDAIIYDSDYVRKCFEWAAECDRCDCSFLDMYHIIQDMDAQVFLSLIDAMASSNKAIIHVSQKEAIRQ	not soluble
MIETAIYGKTVDDQSRCVHWHLPKDVIAIRFKCCDKYYACFECHQELSSHPLEKYDLLDDANKHLIICGVCRHEMTFAEYYDYNSNLICPNCRSPFNPGCKLHYHLYFQNPPPAMC	not soluble
MAHHHHHHMSTHIERLQSEDEVAFKLKGEIAAIEKEIKSWFIKRRLNMELNYSLHNLFTNYNIVGLSINKKIDLKEKMLWHDIVNGKPTLEDTLSLDAKEYKADVYRKMWENSTTTDNPCRLVGSIFFRCLKGNYQLTEQEREGTCMHSFLNFTHCRKALKLQQANNIRTALTKQSAEDTQAKALFERRSALLGKLTGSAP	not soluble
MGSDKIHHHHHHMLANLNQAMDYIEEHLTEEVSFDELAKKTGISVYHFKRTFSFITGMSLAEYIKKRPLAEANLALLAGEKVTDVAFKYGYQSIEGFSRAFRDWSGQAPSEVMKTQIQKTFPKFSFYIDIKGGQSMDVKLIEKPAFQIVGVSQKVPLQYQGENQAIMELAQRITPQQRAEMHTFDDIYPHQVVNASFDFQEGRTTEGGEMTHMIGFATSQENTYEDLEQLSVPAHTWAVFPNEGPFPQTLQETWAKIFSEWLPSSGYQVVAAPEISFTQYQGPAEAKYSEIWLAVTATK	not soluble
MSLKTVEEQAKNIYQLLEMVYGTSPWTLEQVLIDIRRDQTDYFLLYDHDKLLGFLAIQDLAGEVEMTQIAILPSHQELGLASQLMTHLDSIESDIFLEVRESNHRAQGLYQKFGFKFIGKRPDYYRNPIETALLMKREGKHDREGHHHHHH	soluble
MGSDKIHHHHHHMRFGYFDDVNREYVITTPQTPYPWINYLGTEDFFSIISHMAGGYCFYKDARLRRITRFRYNNVPTDAGGRYFYIREENGDFWTPTWMPVRKDLSFFEARHGLGYTKITGERNGLRATITYFVPRHFTGEVHYLVLENKAEKPRKIKLFSFIEFCLWNALDDMTNFQRNYSTGEVEIEGSVIYHKTEYRERRNHYAFYSVNQPIDGFDTDRESFIGLYSGFEAPQAVVEGKPRNSVASGWAPIASHYLEIELAPSEKKELIFILGYVENPEEEKWEKPGVINKKRAKEMIEKFKTGEDVEHALKELREYWDDLLGRIQVETHDEKLNRMVNIWNQYQCMVTFNISRSASYFESGISRGIGFRDSNQDILGFVHMIPEKARQRILDLASIQFEDGSTYHQFQPLTKKGNNEIGGGFNDDPLWLILSTSAYIKETGDWSILGEEVPFDNDPNKKASLFEHLKRSFYFTVNNLGPHGLPLIGRADWNDCLNLNCFSKNPDESFQTTVNALDGRVAESVFIAGLFVLAGKEFVEICKRRGLEEEAREAEKHVNKMIETTLKYGWDGEWFLRAYDAFGRKVGSKECEEGKIFIEPQGMCVMAGIGVDNGYAEKALDSVKKYLDTPYGLVLQQPAYSRYYIELGEISSYPPGYKENAGIFCHNNPWVAIAETVIGRGDRAFEIYRKITPAYLEDISEIHRTEPYVYAQMVAGKDAPRHGEAKNSWLTGTAAWSFVAITQHILGIRPTYDSLVVDPCIPKEWEGFRITRKFRGSIYDITVKNPSHVSKGVKEIIVDGKKIEGQVLPVFEDGKVHRVEVVMG	not soluble
ANQPDWADEAANGAHQDAWKSLKARVENVYYMVKATYKNDPVWGNDFTCVGVMANDVNEDEKSIQAEFLFMNNADTNMQFATEKVTAVKMYGYNRENAFRYETEDGQVFTDVIAYSDDNCDVIYVPGTDGNEEGYELWTTDYDNIPANCLNKFNEYAVGRETRDVFTSACLE	soluble
IKELKMSKDEIKREYKEMEGSPEIKSKRRQFHQEIQSRNMRENVKRSSVVVAAATHIAIGILYKRGETPLPLVTFKYTDAQVQTVRKIAEEEGVPILQRIPLARALYWDALVDHYIPAEQIEATAEVLRWLERQNIEKQHSEML	soluble
MAKRPSTSKNPAEDDELIIDECRRKLDDDESNDVGAYFEDDNQQGTSYRTPFMPSHLGLIQDQSPDLTMKDLFNRKRSRPQSTGFIDHSQARYYDRYKQQEYTRRNDFMKYCHVCRKKTVGKLRVLPGDLRMRKVWILRSNLDEERSAELWLREMACEGSHGGEFCEAHFPAGSQHMKGNQLIPLDVRPEEGRHSVVEDIQFDFDAIHLQCVFCGRDGPLATMLPFIRNRAKRLRWIEQLASGNETYKNRLLHALRGGVTQFLCDYHISDSSFEINGFGEWRLLKNALPDPRLVASDKRGERKYLVDKCRDEMFWERAMWKSADLLSQNGTADDEDIIVGDDIRQFLTNSVPSEAEQVLHPILQIKQNVEKKLNEADLQPGTSGTSGESNATADNLKIGISEEGVEYSDDSDEENELIEKMGDIPYSKRLCQVCSAVEPIGNEFPNNFPYKFSIRTWPFDECRHKKWLEIMDWPPEFEESMKTLWQKRKTEGALSDSYHFCPINVCQSHLDFRQLPERMEEWHQTFCLLCDTCMSDKSFLVGIPHNFETRTKWANSLFPVKEGNKFQLKKISWLRRRFLRSKPTRYRICVYHFNRKAFQVNQDDKIVLDAEALPLPIDSDDFDLTPRGPNSVCKCVLCDDWKKVEDMVPFRAPHSEAERSFLIDIVIHSDKMTIKKALASLAKTNRPALICNIHFPDGIDPFSIIAERRLMYGVQSECVLCAHANDCTAMIPFPGPDDEKLRTKWINSMCREPWIYRYLSTRLEKPGRHYLCASHFNRNSLRYHAGLGLWRRAAACPVLACTTDEERQEVWDLSKSQPLYHPLILETFDDNGSGRLDYDDVLNFLGTERMRQIETELNFHGRNDSLLRRENRKKNTGRSFYADMPNIYEHGELQEVEDQMEGEEEEVVQEECIIYEEEHHLDEAEELEVIEEEEVVEEIVEQVVDDGVVVGEEM	not soluble
MNNEFLQTEEDIVRMLRTVYDPEIPVNVYDLGLIYNVDVGADGFVTVTMTLTAPNCPAADFIIEDVRMKVESVKGVKGVKIDLTFEPEWNKDMMSEEAMLELGFL	not soluble
SAAETRNVAGAEAPPPQKRYYRQRAHSNPMADHTLRYPVKPEEMDWSELYPEFFAPLTQNQSHDDPKDKKEKRAQAQVEFADIGCGYGGLLVELSPLFPDTLILGLEIRVKVSDYVQDRIRALRAAPAGGFQNIACLRSNAMKHLPNFFYKGQLTKMFFLFPDPHFKRTKHKWRIISPTLLAEYAYVLRVGGLVYTITDVLELHDWMCTHFEEHPLFERVPLEDLSEDPVVGHLGTSTEEGKKVLRNGGKNFPAIFRRIQDPVLQAVTSQTSLPGH	soluble
MSLGQDEALEKALDMIRNADRIVIGGGAGLSACGGLNYMSLEVLKKEFPALARRGYHTLWEALWDDRRTKQQKIGMMAAEVLWACYDFPVIRAYQDLLRMVEDKDYFVLTSNIDRQFHKAGFEEERIFEPQCSASDLQCQTPCCRDIWDGESVWRKIAANMDRETYACREEDIPRCDRCHAPAVQNMRGIKSFIPDKVMWNRIEFEQYIKEASDLRTVFLELGAGFNSPGVIRHPFQRLAYRYPKAALIRMNQEFPKVPEKIKDRSVEIAGDIGEALAQMRRLYEREGHHHHHH	soluble
MGNQSTSSKGSDTKKEQITVKHQLDKNGTKVPKNPKKVVVFDFGSLDTLDKLGLDDIVAGLPKQVLPKYLSKFKDDKYADVGSLKEPDFDKVAELDPDLIIISARQSESYKEFSKIAPTIYLGVDTAKYMESFKSDAETIGKIFDKEDKVKDELANIDHSIADVKKTAEKLNKNGLVIMANDGKISAFGPKSRYGLIHDVFGVAPADQNIKASTHGQSVSYEYISKTNPDYLFVIDRGTAIGETSSTKQVVENDYVKNVNAVKNGHVIYLDSATWYLSGGGLESMTQMIKEVKDGLEKLEHHHHHH	soluble
KLKPFNDEKTAKIAEEVQQFYESNATISLNEYLENVGELGYELYLTDGAEKSTYYGGAFRKKDLPDKTIKQVLDGETYHGIDSFDTGIFITGFFDNDVRNTIGVPVQADGKQLALFIRQDPEKQFGELRIF	soluble
MLGMSYLRYVRIIGTVHVSPQSVKEVRNIILRENPDAVAVELDYGRLLSLLNGSSLTFSQAIKLGKIGILAYLLQGVEMALGKQVGVLPGSEMIEAFEVARSLGIPIYMIDMPIQVTLKRLFSVPIEEKIRGIIEIFLSIVYPKVELNLEDYISLELEFKRKYPTVYKILVEERNEFMARNLMRIVDILLERKKKIKIIAVVGLGHKRGIERILSHYSPKSIYLEHHHHHH	not soluble
